Values belong to the binder of their own block, whether it stands above or below them.
Key:
Assay in all cases: two-hybrid library CCNG1;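 note: natural log of median RNA to DNA barcode read ratio; higher means stronger binding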
4H717-bN = molecular target: T1, 4H717-bN
T1 chain: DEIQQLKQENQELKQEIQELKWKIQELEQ

4H72-bN = molecular target: T2, 4H72-bN
T2 chain: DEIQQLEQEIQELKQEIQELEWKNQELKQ

4H3185-bN = molecular target: T3, 4H3185-bN
T3 chain: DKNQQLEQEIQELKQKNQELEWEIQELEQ

4H2729-bN = molecular target: T4, 4H2729-bN
T4 chain: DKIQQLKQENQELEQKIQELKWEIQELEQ

4H918-bN = molecular target: T5, 4H918-bN
T5 chain: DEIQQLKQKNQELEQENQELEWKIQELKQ

4H338-bN = molecular target: T6, 4H338-bN
T6 chain: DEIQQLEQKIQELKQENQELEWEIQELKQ

4H3855-bN = molecular target: T7, 4H3855-bN
T7 chain: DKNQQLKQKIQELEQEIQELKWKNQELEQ

4H454-bN = molecular target: T8, 4H454-bN
T8 chain: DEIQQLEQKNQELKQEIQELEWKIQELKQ

4H3782-bN = molecular target: T9, 4H3782-bN
T9 chain: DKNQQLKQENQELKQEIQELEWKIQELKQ

4H2618-bN = molecular target: T10, 4H2618-bN
T10 chain: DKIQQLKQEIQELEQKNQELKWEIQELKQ

4H331-bN = molecular target: T11, 4H331-bN
T11 chain: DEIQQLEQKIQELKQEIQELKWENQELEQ

4H3354-bN = molecular target: T12, 4H3354-bN
T12 chain: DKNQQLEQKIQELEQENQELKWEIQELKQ

4H2667-bN = molecular target: T13, 4H2667-bN
T13 chain: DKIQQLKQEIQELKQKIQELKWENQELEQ

4H568-bN = molecular target: T14, 4H568-bN
T14 chain: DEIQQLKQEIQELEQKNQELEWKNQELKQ

4H908-bN = molecular target: T15, 4H908-bN
T15 chain: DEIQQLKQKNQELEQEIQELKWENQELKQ

4H3427-bN = molecular target: T16, 4H3427-bN
T16 chain: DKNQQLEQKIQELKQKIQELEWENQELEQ

4H4001-bN = molecular target: T17, 4H4001-bN
T17 chain: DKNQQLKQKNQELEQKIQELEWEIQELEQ

4H3112-bN = molecular target: T18, 4H3112-bN
T18 chain: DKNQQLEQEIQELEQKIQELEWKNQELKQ

4H967-bN = molecular target: T19, 4H967-bN
T19 chain: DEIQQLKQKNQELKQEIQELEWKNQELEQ

4H797-bN = molecular target: T20, 4H797-bN
T20 chain: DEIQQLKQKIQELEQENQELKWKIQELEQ

4H687-bN = molecular target: T21, 4H687-bN
T21 chain: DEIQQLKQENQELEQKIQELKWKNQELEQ

4H607-bN = molecular target: T22, 4H607-bN
T22 chain: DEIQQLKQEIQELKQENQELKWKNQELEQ

4H953-bN = molecular target: T23, 4H953-bN
T23 chain: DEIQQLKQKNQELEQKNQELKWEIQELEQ

4H754-bN = molecular target: T24, 4H754-bN
T24 chain: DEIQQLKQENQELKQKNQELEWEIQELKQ

4H883-bN = molecular target: T25, 4H883-bN
T25 chain: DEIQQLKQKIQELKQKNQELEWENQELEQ

4H3628-bA = molecular target: T26, 4H3628-bA
T26 chain: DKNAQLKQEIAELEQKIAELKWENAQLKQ

4H457-bA = molecular target: T27, 4H457-bA
T27 chain: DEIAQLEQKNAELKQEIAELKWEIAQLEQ

4H855-bA = molecular target: T28, 4H855-bA
T28 chain: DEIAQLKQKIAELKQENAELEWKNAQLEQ

4H683-bA = molecular target: T29, 4H683-bA
T29 chain: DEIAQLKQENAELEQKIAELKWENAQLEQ

4H754-bA = molecular target: T30, 4H754-bA
T30 chain: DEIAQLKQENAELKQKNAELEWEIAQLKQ

4H968-bA = molecular target: T31, 4H968-bA
T31 chain: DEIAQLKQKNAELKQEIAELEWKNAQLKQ

4H780-bA = molecular target: T32, 4H780-bA
T32 chain: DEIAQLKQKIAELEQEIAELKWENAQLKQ

4H575-bA = molecular target: T33, 4H575-bA
T33 chain: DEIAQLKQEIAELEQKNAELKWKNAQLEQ

4H953-bA = molecular target: T34, 4H953-bA
T34 chain: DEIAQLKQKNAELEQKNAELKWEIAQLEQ

4H949-bN = molecular target: T35, 4H949-bN
T35 chain: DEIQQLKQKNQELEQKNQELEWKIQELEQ

4H4073-bA = molecular target: T36, 4H4073-bA
T36 chain: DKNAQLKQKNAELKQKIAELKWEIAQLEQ

4H918-bA = molecular target: T37, 4H918-bA
T37 chain: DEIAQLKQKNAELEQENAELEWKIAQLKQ

P3mSN = molecular target: T38, P3mSN
T38 chain: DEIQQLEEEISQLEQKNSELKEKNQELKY

4H797-bA = molecular target: T39, 4H797-bA
T39 chain: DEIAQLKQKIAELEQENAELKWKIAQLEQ

interaction score (4H717-bN): -0.442
interaction score (4H72-bN): -0.128
interaction score (4H3185-bN): 0.0545
interaction score (4H2729-bN): 1.51
interaction score (4H918-bN): 0.558
interaction score (4H338-bN): 0.959
interaction score (4H3855-bN): -0.781
interaction score (4H454-bN): 0.067
interaction score (4H3782-bN): -0.594
interaction score (4H2618-bN): 0.45
interaction score (4H331-bN): -0.0801
interaction score (4H3354-bN): -0.374
interaction score (4H2667-bN): -0.229
interaction score (4H568-bN): -1.88
interaction score (4H908-bN): -1.09
interaction score (4H3427-bN): 0.0822
interaction score (4H4001-bN): -0.538
interaction score (4H3112-bN): -0.924
interaction score (4H967-bN): -1.39
interaction score (4H797-bN): -0.249
interaction score (4H687-bN): -0.758
interaction score (4H607-bN): -0.0391
interaction score (4H953-bN): -1.12
interaction score (4H754-bN): -0.67
interaction score (4H883-bN): 0.595
interaction score (4H3628-bA): 0.00803
Binder: DKIQQLKQEIQELEQKNQELKWEIQELKQ [4H2618-bN]

interaction score (4H457-bA): -1.06
interaction score (4H855-bA): -1.17
interaction score (4H683-bA): -0.684
interaction score (4H754-bA): -1.31
interaction score (4H968-bA): -1.01
interaction score (4H780-bA): -1.4
interaction score (4H575-bA): -1.51
interaction score (4H953-bA): -1.91
interaction score (4H949-bN): -1.71
interaction score (4H4073-bA): -0.968
interaction score (4H918-bA): -0.789
interaction score (P3mSN): -4.32
interaction score (4H797-bA): -1.27
Binder: DKNAQLKQKNAELKQKIAELKWEIAQLEQ [4H4073-bA]
